For series [1], the system named is HeLa Kyoto. Briefly: solubility in G1/S (NP-40 vs SDS abundance) (log2 ratio); higher = more soluble. To be noted: cell cycle stage: G1/S.
The test system of series [2] is HeLa Kyoto. Briefly: melting temperature (median over replicates), in situ; higher = more thermally stable.
In series [3] the test system is HeLa Kyoto. Briefly: solubility change mitosis vs G1/S (difference of NP-40 vs SDS log2 ratios) (log2 ratio difference); higher = more soluble in mitosis.
The test system of series [4] is HeLa Kyoto. Briefly: thermal stability score vs G1/S (z-score of summed log2 fold changes over temperatures); higher = more thermally stable than in G1/S.
Setting [5] is: cell cycle stage: early G1 (4.5 h after nocodazole release).
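Throughout, for melting temperature (median over replicates), in situ: HeLa Kyoto cells synchronized by double thymidine or nocodazole block, proteins quantified by TMT10plex mass spectrometry, three independent biological replicates.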
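Throughout, for solubility change mitosis vs G1/S (difference of NP-40 vs SDS log2 ratios): synchronized HeLa Kyoto cells (double thymidine block for G1/S, nocodazole release for mitosis), protein amounts in NP-40 versus SDS lysates quantified by mass spectrometry, three biological replicates.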
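Throughout, for solubility in G1/S (NP-40 vs SDS abundance): HeLa Kyoto cells arrested at G1/S by double thymidine block, proteins quantified by TMT10plex mass spectrometry in mild NP-40 versus SDS extracts, three biological replicates.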
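Throughout, for thermal stability score vs G1/S (z-score of summed log2 fold changes over temperatures): synchronized HeLa Kyoto cells, proteins quantified by TMT10plex mass spectrometry, three biological replicates, mitosis taken 0.5 h after nocodazole release, G1/S directly after double thymidine block.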

For “MGGKNKKHKAPAAAVVRAAVSASRAKSAEAGIAGEAQSKKPVSRPATAAAAAAGSREPRVKQGPKIYSFNSTNDSSGPANLDKSILKVVINNKLEQRIIGVINEHKKQNNDKGMISGRLTAKKLQDLYMALQAFSFKTKDIEDAMTNTLLYGGDLHSALDWLCLNLSDDALPEGFSQEFEEQQPKSRPKFQSPQIQATISPPLQPKTKTYEEDPKSKPKKEEKNMEVNMKEWILRYAEQQNEEEKNENSKSLEEEEKFDPNERYLHLAAKLLDAKEQAATFKLEKNKQGQKEAQEKIRKFQREMETLEDHPVFNPAMKISHQQNERKKPPVATEGESALNFNLFEKSAAATEEEKDKKKEPHDVRNFDYTARSWTGKSPKQFLIDWVRKNLPKSPNPSFEKVPVGRYWKCRVRVIKSEDDVLVVCPTILTEDGMQAQHLGATLALYRLVKGQSVHQLLPPTYRDVWLEWSDAEKKREELNKMETNKPRDLFIAKLLNKLKQQQQQQQQHSENKRENSEDPEESWENLVSDEDFSALSLESANVEDLEPVRNLFRKLQSTPKYQKLLKERQQLPVFKHRDSIVETLKRHRVVVVAGETGSGKSTQVPHFLLEDLLLNEWEASKCNIVCTQPRRISAVSLANRVCDELGCENGPGGRNSLCGYQIRMESRACESTRLLYCTTGVLLRKLQEDGLLSNVSHVIVDEVHERSVQSDFLLIILKEILQKRSDLHLILMSATVDSEKFSTYFTHCPILRISGRSYPVEVFHLEDIIEETGFVLEKDSEYCQKFLEEEEEVTINVTSKAGGIKKYQEYIPVQTGAHADLNPFYQKYSSRTQHAILYMNPHKINLDLILELLAYLDKSPQFRNIEGAVLIFLPGLAHIQQLYDLLSNDRRFYSERYKVIALHSILSTQDQAAAFTLPPPGVRKIVLATNIAETGITIPDVVFVIDTGRTKENKYHESSQMSSLVETFVSKASALQRQGRAGRVRDGFCFRMYTRERFEGFMDYSVPEILRVPLEELCLHIMKCNLGSPEDFLSKALDPPQLQVISNAMNLLRKIGACELNEPKLTPLGQHLAALPVNVKIGKMLIFGAIFGCLDPVATLAAVMTEKSPFTTPIGRKDEADLAKSALAMADSDHLTIYNAYLGWKKARQEGGYRSEITYCRRNFLNRTSLLTLEDVKQELIKLVKAAGFSSSTTSTSWEGNRASQTLSFQEIALLKAVLVAGLYDNVGKIIYTKSVDVTEKLACIVETAQGKAQVHPSSVNRDLQTHGWLLYQEKIRYARVYLRETTLITPFPVLLFGGDIEVQHRERLLSIDGWIYFQAPVKIAVIFKQLRVLIDSVLRKKLENPKMSLENDKILQIITELIKTENN [DHX29]”, the “solubility in G1/S (log2)” value in series [1] is -0.444. The melting temperature in series [2] (cell cycle stage: G1/S) amounted to 51.7 °C; in series [2] (cell cycle stage: mitosis) it was 50.7 °C. In series [3], the “solubility change mitosis (log2)” value turned out to be 0.00585. For the same sequence, the values for the thermal stability score in series [4] (setting [5]) and in series [4] (cell cycle stage: mitosis) were -0.474 and -0.738, respectively.

As for “MGGLFSRWRTKPSTVEVLESIDKEIQALEEFREKNQRLQKLWVGRLILYSSVLYLFTCLIVYLWYLPDEFTARLAMTLPFFAFPLIIWSIRTVIIFFFSKRTERNNEALDDLKSQRKKILEEVMEKETYKTAKLILERFDPDSKKAKECEPPSAGAAVTARPGQEIRQRTAAQRNLSPTPASPNQGPPPQVPVSPGPPKDSSAPGGPPERTVTPALSSNVLPRHLGSPATSVPGMGLHPPGPPLARPILPRERGALDRIVEYLVGDGPQNRYALICQQCFSHNGMALKEEFEYIAFRCAYCFFLNPARKTRPQAPRLPEFSFEKRQVVEGSSSVGPLPSGSVLSSDNQFNEESLEHDVLDDNTEQTDDKIPATEQTNQVIEKASDSEEPEEKQETENEEASVIETNSTVPGADSIPDPELSGESLTAE”, the “solubility in G1/S (log2)” value in series [1] was -0.311. The melting temperature in series [2] (cell cycle stage: G1/S) turned out to be 55 °C; in series [2] (cell cycle stage: mitosis) it was 56.9 °C. The “solubility change mitosis (log2)” value in series [3] is -0.0648. Besides, the values for the thermal stability score in series [4] (setting [5]) and in series [4] (cell cycle stage: mitosis) were -1.47 and -0.475, respectively.

For the sequence “MGGPRGAGWVAAGLLLGAGACYCIYRLTRGRRRGDRELGIRSSKSAGALEEGTSEGQLCGRSARPQTGGTWESQWSKTSQPEDLTDGSYDDVLNAEQLQKLLYLLESTEDPVIIERALITLGNNAAFSVNQAIIRELGGIPIVANKINHSNQSIKEKALNALNNLSVNVENQIKIKIYISQVCEDVFSGPLNSAVQLAGLTLLTNMTVTNDHQHMLHSYITDLFQVLLTGNGNTKVQVLKLLLNLSENPAMTEGLLRAQVDSSFLSLYDSHVAKEILLRVLTLFQNIKNCLKIEGHLAVQPTFTEGSLFFLLHGEECAQKIRALVDHHDAEVKEKVVTIIPKI [ARMC10]”, the “solubility in G1/S (log2)” value in series [1] is 0.226. Also, the melting temperature in series [2] (cell cycle stage: G1/S) was 50.8 °C; in series [2] (cell cycle stage: mitosis), 49.7 °C. Also, the “solubility change mitosis (log2)” value in series [3] is -0.108. Besides, the thermal stability score in series [4] (setting [5]) stood at 0.978; in series [4] (cell cycle stage: mitosis), 1.04.

Regarding “MGGTTSTRRVTFEADENENITVVKGIRLSENVIDRMKESSPSGSKSQRYSGAYGASVSDEELKRRVAEELALEQAKKESEDQKRLKQAKELDRERAAANEQLTRAILRERICSEEERAKAKHLARQLEEKDRVLKKQDAFYKEQLARLEERSSEFYRVTTEQYQKAAEEVEAKFKRYESHPVCADLQAKILQCYRENTHQTLKCSALATQYMHCVNHAKQSMLEKGG [CHCHD3]”, the “solubility in G1/S (log2)” value in series [1] came to 0.229. Further, the melting temperature came out at 54.6 °C in series [2] (cell cycle stage: G1/S) and 54.2 °C in series [2] (cell cycle stage: mitosis). Besides, in series [3], the “solubility change mitosis (log2)” value is 0.291. Further, the values for the thermal stability score in series [4] (setting [5]) and in series [4] (cell cycle stage: mitosis) were -2.54 and -6, respectively.

The values above are taken from the supplement of paper PMC5998384.
